Data reported in article PMC6298231.

Target: Thrombospondin-1, full-length 185 kDa protein released by endothelial cells (human (endogenous in microvascular endothelial cells)) (UniProt P07996)
Experiment: non-reducing SDS-PAGE with immunoblot

Thrombospondin-1, full-length 185 kDa protein released by endothelial cells (from UniProt P07996 19-1170) (natural protein)
stoichiometry N: 3
